Laboratory results taken from the supplement of paper PMC10567573.

B1: SLC19A2 (parent)
chain: IYPVWTYSYLVLLFPVFLATDYLR
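Further: lentivirally expressed fusions sorted by FACS into six bins by GFP to DsRed ratio, PSI derived from sequencing read proportions per bin multiplied by bin number.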

Variants of: B1
Assay: protein stability index of a GFP-peptide fusion (GPS, HEK-293T) (PSI 1-6); higher = more stable
Settings: c terminus: a fixed tail appended
In the case of IYLVWTYSYLVLLFPVFLATDYLR, the protein stability index is reported as 3.98.
For IYSVWTYSYLVLLFPVFLATDYLR, the protein stability index was 3.26.
For IYGVWTYSYLVLLFPVFLATDYLR, the protein stability index was 3.79.
IYPVWTYSYLVLLFPVFLATDYDR showed a protein stability index of 2.96.
IYPVWTYSYLVLLFPVFLATDYHR gave a protein stability index of 2.11.
Variant IYPVWTYSYLVLLFPVFLATDYIR has a protein stability index of 2.61.
IYPVWTYSYLVLLFPVFLATDYNR showed a protein stability index of 1.46.
Work on IYPVWTYSYLVLLFPVFLATDYRR yielded a protein stability index of 3.03.
Work on IYPVWTYSYLVLLFPVFLATDYAR yielded a protein stability index of 3.57.
IYPVWTYSYLVLLFPVFLATDYTR gave a protein stability index of 2.48.
Work on IYPVWTYSYLVLLFPVFLATDYVR yielded a protein stability index of 2.32.
IYPVWTYSYLVLLFPVFLATDYER showed a protein stability index of 2.68.
Variant IYPVWTYSYLVLLFPVFLATDYWR has a protein stability index of 3.21.
IYPVWTYSYLVLLFPVFLATDYQR showed a protein stability index of 2.54.
For WYPVWTYSYLVLLFPVFLATDYLR, the protein stability index was 2.38.
In the case of RYPVWTYSYLVLLFPVFLATDYLR, the protein stability index is reported as 1.87.
In the case of VYPVWTYSYLVLLFPVFLATDYLR, the protein stability index is reported as 4.95.
SYPVWTYSYLVLLFPVFLATDYLR showed a protein stability index of 2.54.
Work on YYPVWTYSYLVLLFPVFLATDYLR yielded a protein stability index of 1.63.
Work on IYPVWTYSYLVLLFPAFLATDYLR yielded a protein stability index of 3.1.
Variant IYPVWTYSYLVLLFPFFLATDYLR has a protein stability index of 3.04.
In the case of IYPVWTYSYLVLLFPLFLATDYLR, the protein stability index is reported as 2.41.
Variant IYPVWTYSYLVLLFPKFLATDYLR has a protein stability index of 1.95.
IYPVWTYSYLVLLFPCFLATDYLR gave a protein stability index of 2.79.
Work on IYPVWTYSYLVLLFPMFLATDYLR yielded a protein stability index of 2.55.
IYPVWTYSYMVLLFPVFLATDYLR showed a protein stability index of 2.85.
IYPVWTYSYNVLLFPVFLATDYLR gave a protein stability index of 4.14.
IYPVWTYSYWVLLFPVFLATDYLR showed a protein stability index of 3.88.
Variant IYPVWTYSYSVLLFPVFLATDYLR has a protein stability index of 3.94.
IYPVWTYSYDVLLFPVFLATDYLR showed a protein stability index of 4.06.
Variant IYPVWTYSYIVLLFPVFLATDYLR has a protein stability index of 2.9.
IYPVWTYSYHVLLFPVFLATDYLR showed a protein stability index of 3.75.
With IYPVWTYSYYVLLFPVFLATDYLR the protein stability index was 3.63.
IYPVWTYSYQVLLFPVFLATDYLR gave a protein stability index of 2.81.
With IYPVWTYSYLILLFPVFLATDYLR the protein stability index was 3.28.
In the case of IYPVWTYSYLPLLFPVFLATDYLR, the protein stability index is reported as 2.04.
In the case of IYPVWTYSYLCLLFPVFLATDYLR, the protein stability index is reported as 3.16.
Variant IYPVWTYSYLGLLFPVFLATDYLR has a protein stability index of 3.44.
IYPVWTYSYLWLLFPVFLATDYLR showed a protein stability index of 4.19.
Variant IYPVWTYSYLHLLFPVFLATDYLR has a protein stability index of 3.87.
In the case of IYPVWTYSYLLLLFPVFLATDYLR, the protein stability index is reported as 2.77.
With IYPVWTYSYLALLFPVFLATDYLR the protein stability index was 3.63.
For IYPVWTYSYLVLLFPVFNATDYLR, the protein stability index was 2.84.
For IYPVWTYSYLVLLFPVFMATDYLR, the protein stability index was 3.69.
IYPVWTYSYLVLLFPVFDATDYLR gave a protein stability index of 2.81.
IYPVWTYSYLVLLFPVFYATDYLR showed a protein stability index of 2.32.
Work on IYPVWTYSYLVLLFPVFTATDYLR yielded a protein stability index of 2.54.
IYPVWTYSYLVLLFPVFRATDYLR gave a protein stability index of 4.66.
Work on IYPVWTYSYLVLLFPVFEATDYLR yielded a protein stability index of 3.06.
IYPVWTYSYLVLLFPVFIATDYLR gave a protein stability index of 3.03.
With IGPVWTYSYLVLLFPVFLATDYLR the protein stability index was 1.97.
Work on ISPVWTYSYLVLLFPVFLATDYLR yielded a protein stability index of 2.56.
IIPVWTYSYLVLLFPVFLATDYLR showed a protein stability index of 4.61.
In the case of IEPVWTYSYLVLLFPVFLATDYLR, the protein stability index is reported as 2.56.
In the case of IPPVWTYSYLVLLFPVFLATDYLR, the protein stability index is reported as 2.62.
IWPVWTYSYLVLLFPVFLATDYLR showed a protein stability index of 3.59.
For IVPVWTYSYLVLLFPVFLATDYLR, the protein stability index was 3.19.
Variant IAPVWTYSYLVLLFPVFLATDYLR has a protein stability index of 3.21.
Work on IMPVWTYSYLVLLFPVFLATDYLR yielded a protein stability index of 3.15.
IYPVWTYSYLVLCFPVFLATDYLR showed a protein stability index of 2.38.
IYPVWTYSYLVLPFPVFLATDYLR showed a protein stability index of 1.48.
IYPVWTYSYLVLGFPVFLATDYLR gave a protein stability index of 1.19.
Work on IYPVWTYSYLVLVFPVFLATDYLR yielded a protein stability index of 3.06.
In the case of IYPVWTYSYLVLEFPVFLATDYLR, the protein stability index is reported as 2.6.
Work on IYPVWTYSYLVLFFPVFLATDYLR yielded a protein stability index of 2.64.
Work on IYPVWTYSYLVLYFPVFLATDYLR yielded a protein stability index of 2.87.
Variant IYPVWTYSYLVLDFPVFLATDYLR has a protein stability index of 3.57.
With IYPVWTYSYLVLWFPVFLATDYLR the protein stability index was 3.58.
In the case of IYPVWTYSYLVLTFPVFLATDYLR, the protein stability index is reported as 1.87.
Variant IYPVWTYSYLVLNFPVFLATDYLR has a protein stability index of 2.64.
Work on IYPVWTYSYLVILFPVFLATDYLR yielded a protein stability index of 3.39.
In the case of IYPVWTYSYLVMLFPVFLATDYLR, the protein stability index is reported as 2.48.
Work on IYPVWTYSYLVNLFPVFLATDYLR yielded a protein stability index of 1.72.
Work on IYPVWTYSYLVTLFPVFLATDYLR yielded a protein stability index of 2.41.
For IYPVWTYSYLVLLFPVFLATDFLR, the protein stability index was 3.76.
For IYPVWTYSYLVLLFPVFLATDPLR, the protein stability index was 3.49.
IYPVWTYSYLVLLFPVFLATDELR gave a protein stability index of 2.71.
Variant IYPVWTYSYLVLLFPVGLATDYLR has a protein stability index of 2.81.
Variant IYPVWTYSYLVLLFPVMLATDYLR has a protein stability index of 3.21.
Work on IYPVWTYSYLVLLFPVHLATDYLR yielded a protein stability index of 3.74.
IYPVWTYSYLVLLFPVCLATDYLR gave a protein stability index of 2.97.
IYPVWTYSYLVLLFPVKLATDYLR gave a protein stability index of 3.78.
With IYPVWTYSYLVLLFPVPLATDYLR the protein stability index was 4.41.
For IYPVWTYSYLVLLFPVELATDYLR, the protein stability index was 3.22.
Work on IYPVWTYSYLVLLFPVRLATDYLR yielded a protein stability index of 2.95.
With IYPVWTYSYLVLLFPVDLATDYLR the protein stability index was 2.99.
IYPVLTYSYLVLLFPVFLATDYLR showed a protein stability index of 2.19.
Variant IYPVHTYSYLVLLFPVFLATDYLR has a protein stability index of 3.15.
For IYPVITYSYLVLLFPVFLATDYLR, the protein stability index was 4.83.
For IYPVVTYSYLVLLFPVFLATDYLR, the protein stability index was 2.65.
IYPVMTYSYLVLLFPVFLATDYLR showed a protein stability index of 2.65.
Work on IYPVNTYSYLVLLFPVFLATDYLR yielded a protein stability index of 2.25.
In the case of IYPVCTYSYLVLLFPVFLATDYLR, the protein stability index is reported as 3.27.
For IYPVETYSYLVLLFPVFLATDYLR, the protein stability index was 3.02.
